# Laboratory results reported in PMC11685456, “Structural insights into GrpEL1-mediated nucleotide and substrate release of human mitochondrial Hsp70” (Nature Communications, 2024).
# B1: human GrpEL1 wild type, without its mitochondrial targeting sequence (natural protein, UniProt Q9HAV7 28-217, looked up)
# chain: CTATKQKNSGQNLEEDMGQSEQKADPPATEKTLLEEKVKLEEQLKETVEKYKRALADTENLRQRSQKLVEEAKLYGIQAFCKDLLEVADVLEKATQCVPKEEIKDDNPHLKNLYEGLVMTEVQIQKVFTKHGLLKLNPVGAKFDPYEHEALFHTPVEGKEPGTVALVSKVGYKLHGRTLRPALVGVVKEA
# notes: GrpEL1, human mitochondrial nucleotide exchange factor; printed mass 25.5 kDa a protomer; Homodimer; no tag removal is described; also called GrpEL1WT; HsGrpEL1; source: E. coli LOBSTR, purified (Ni Sepharose, Strep-Tactin, Superdex 200)
# B2: human GrpEL1 Y173A, without its mitochondrial targeting sequence (natural protein, UniProt Q9HAV7 28-217, looked up)
# chain: CTATKQKNSGQNLEEDMGQSEQKADPPATEKTLLEEKVKLEEQLKETVEKYKRALADTENLRQRSQKLVEEAKLYGIQAFCKDLLEVADVLEKATQCVPKEEIKDDNPHLKNLYEGLVMTEVQIQKVFTKHGLLKLNPVGAKFDPAEHEALFHTPVEGKEPGTVALVSKVGYKLHGRTLRPALVGVVKEA
# notes: GrpEL1, human; Two protomers (GrpEL1-A and GrpEL1-B) were modelled in the Y173A structures; also called HsGrpEL1_(Y173A); source: E. coli LOBSTR, purified as GrpEL1WT (Ni Sepharose, Strep-Tactin, Superdex 200)
# Assays:
# [1] = target: T1, human mortalin R126W (mitochondrial Hsp70, HSPA9), without its mitochondrial targeting sequence (human, UniProt P38646 47-679, R126W); assay: SEC-MALS; the mortalin_(R126W)-GrpEL1 complex; 152.5 kDa species; settings: both partners purified
# T1 construct: mortalin (mitochondrial Hsp70, HSPA9), human; printed mass 70.2 kDa; R126W is associated with EVEN-PLUS syndrome; residues 46-639 were modelled in the cryo-EM map; No tag removal is described; also called Hsmortalin_(R126W); mtHsp70; source: E. coli LOBSTR, co-expressed with HsHep1, purified (HisTrap, HiTrap Q, Superdex 200)
# [2] = target: the molecule itself; assay: cryo-EM structure; high molecular weight SEC peak concentrated and vitrified on UltraAuFoil grids; Titan Krios G4, 300 keV; nucleotide-free complexes
# [3] = target: T1, human mortalin R126W (mitochondrial …); assay: SEC; purified mortalin (20 uM), GrpEL1 (40 uM) and Pam16/Pam18 chimera (12 uM) incubated 1 h at room temperature, then Superdex 200 Increase 10/300 GL in 20 mM Tris pH 8, 150 mM KCl, 0.5 mM TCEP; fractions seen by SDS-PAGE; settings: both partners purified
# T1 sequence (P38646 47-679 R126W): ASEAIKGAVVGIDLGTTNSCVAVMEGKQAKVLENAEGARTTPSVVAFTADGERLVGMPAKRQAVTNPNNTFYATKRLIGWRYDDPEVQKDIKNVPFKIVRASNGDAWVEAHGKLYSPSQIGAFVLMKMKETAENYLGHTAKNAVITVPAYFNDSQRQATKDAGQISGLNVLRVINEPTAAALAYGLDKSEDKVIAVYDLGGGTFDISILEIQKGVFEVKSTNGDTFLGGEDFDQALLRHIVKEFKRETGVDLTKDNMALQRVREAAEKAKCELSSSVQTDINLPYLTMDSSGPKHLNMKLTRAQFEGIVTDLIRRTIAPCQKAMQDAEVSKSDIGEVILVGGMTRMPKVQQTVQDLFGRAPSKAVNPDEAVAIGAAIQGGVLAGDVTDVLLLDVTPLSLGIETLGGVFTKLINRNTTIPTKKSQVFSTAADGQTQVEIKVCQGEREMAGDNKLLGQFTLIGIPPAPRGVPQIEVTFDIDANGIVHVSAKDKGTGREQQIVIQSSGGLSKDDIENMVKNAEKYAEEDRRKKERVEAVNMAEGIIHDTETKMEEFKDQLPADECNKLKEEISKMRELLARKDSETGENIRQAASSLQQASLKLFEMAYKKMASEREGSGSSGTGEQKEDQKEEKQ
Binder,stoichiometry N [1],stoichiometry N [2],binding result [2],binding result [3]
B1,2 GrpEL1 per mortalin,2,–,–
B2,–,–,binds,binds
